Reference: publication PMC3484103

Target: GST fused to Las17 fragment P8-12 (GST-P8-12) (S. cerevisiae) (UniProt Q12446)
Assay: pull-down

Sequence of UniProt Q12446 (Q12446 300-404): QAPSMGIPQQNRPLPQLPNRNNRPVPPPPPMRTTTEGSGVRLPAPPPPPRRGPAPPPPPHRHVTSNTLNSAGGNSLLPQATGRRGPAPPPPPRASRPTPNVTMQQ

- Kd: 0.056 µM
Substance: hexahistidine-tagged Sla1 fragment spanning the SH3 domains 1 and 2 (His-Sla1-SH3-1-2) (domain or fragment)
